# Measured values reported in IntAct's records for PubMed 12860405.
# B1: Interleukin-1 receptor-associated kinase 4 (Homo sapiens), Q9NWZ3 (parent)
# chain: MNKPITPSTYVRCLNVGLIRKLSDFIDPQEGWKKLAVAIKKPSGDDRYNQFHIRRFEALLQTGKSPTSELLFDWGTTNCTVGDLVDLLIQNEFFAPASLLLPDAVPKTANTLPSKEAITVQQKQMPFCDKDRTLMTPVQNLEQSYMPPDSSSPENKSLEVSDTRFHSFSFYELKNVTNNFDERPISVGGNKMGEGGFGVVYKGYVNNTTVAVKKLAAMVDITTEELKQQFDQEIKVMAKCQHENLVELLGFSSDGDDLCLVYVYMPNGSLLDRLSCLDGTPPLSWHMRCKIAQGAANGINFLHENHHIHRDIKSANILLDEAFTAKISDFGLARASEKFAQTVMTSRIVGTTAYMAPEALRGEITPKSDIYSFGVVLLEIITGLPAVDEHREPQLLLDIKEEIEDEEKTIEDYIDKKMNDADSTSVEAMYSVASQCLHEKKNKRPDIKKVQQLLQEMTAS
# partner: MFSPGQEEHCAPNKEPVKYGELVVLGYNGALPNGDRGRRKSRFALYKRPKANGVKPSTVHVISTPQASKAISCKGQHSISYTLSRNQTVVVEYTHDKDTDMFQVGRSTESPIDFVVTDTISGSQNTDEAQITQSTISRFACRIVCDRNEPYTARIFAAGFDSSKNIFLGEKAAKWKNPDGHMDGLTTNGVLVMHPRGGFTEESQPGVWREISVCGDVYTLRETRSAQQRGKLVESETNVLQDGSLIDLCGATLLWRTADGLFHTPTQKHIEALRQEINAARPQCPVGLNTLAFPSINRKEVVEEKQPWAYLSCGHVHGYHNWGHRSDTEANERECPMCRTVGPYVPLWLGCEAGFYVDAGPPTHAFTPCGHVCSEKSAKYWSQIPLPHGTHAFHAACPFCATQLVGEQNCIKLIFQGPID
# B2: Interleukin-1 receptor-associated kinase 1 (Homo sapiens), P51617 (parent)
# chain: MAGGPGPGEPAAPGAQHFLYEVPPWVMCRFYKVMDALEPADWCQFAALIVRDQTELRLCERSGQRTASVLWPWINRNARVADLVHILTHLQLLRARDIITAWHPPAPLPSPGTTAPRPSSIPAPAEAEAWSPRKLPSSASTFLSPAFPGSQTHSGPELGLVPSPASLWPPPPSPAPSSTKPGPESSVSLLQGARPFPFCWPLCEISRGTHNFSEELKIGEGGFGCVYRAVMRNTVYAVKRLKENADLEWTAVKQSFLTEVEQLSRFRHPNIVDFAGYCAQNGFYCLVYGFLPNGSLEDRLHCQTQACPPLSWPQRLDILLGTARAIQFLHQDSPSLIHGDIKSSNVLLDERLTPKLGDFGLARFSRFAGSSPSQSSMVARTQTVRGTLAYLPEEYIKTGRLAVDTDTFSFGVVVLETLAGQRAVKTHGARTKYLKDLVEEEAEEAGVALRSTQSTLQAGLAADAWAAPIAMQIYKKHLDPRPGPCPPELGLGLGQLACCCLHRRAKRRPPMTQVYERLEKLQAVVAGVPGHSEAASCIPPSPQENSYVSSTGRAHSGAAPWQPLAAPSGASAQAAEQLQRGPNQPVESDESLGGLSAALRSWHLTPSCPLDPAPLREAGCPQGDTAGESSWGSGPGSRPTAVEGLALGSSASSSSEPPQIIINPARQKMVQKLALYEDGALDSLQLLSSSSLPGLGLEQDRQGPEESDEFQS
# partner: B1 partner
# Variants of: B1
# Details: with peli2_human PELI2, Q9HAT8
row,Variant,effect of a mutation on the interaction
1,K213A,disrupting interaction

# Variants of: B2
# Details: with peli2_human PELI2, Q9HAT8
row,Variant,effect of a mutation on the interaction
1,K239S,disrupting interaction
